In the assay the target is postfusion gB (ectodomain of wild type) (herpes simplex virus 1 (HSV-1), UniProt A1Z0P7). In words: grating-coupled interferometry; gB immobilised by C-terminal Twin-Strep-tag on Strep-Tactin XT chip (400 pg mm^-2); 25 °C; 20 mM HEPES pH 8.0, 300 mM NaCl; waveRAPID tight binder protocol, 200 nM Nb1_gbHSV, regeneration with 3 M GuHCl. Conditions: both partners purified.

B1: Nb1_gbHSV (VHH)
VHH: QVQLVESGGGSVQPGGSLRLSCAASASGRLSMSGALGWYRQVQGKSRELVATITDRSSTNYADSVKGRFTISIDDAENTMYLQMNSLKPEDTGVYYCNARWRGMNVWGKGTRVTVSS
notes: alpaca VHH from an immune library; Unlabelled form used for grating-coupled interferometry, cryo-EM with stabilized HSV-1 gB and plaque reduction; also called the nanobody; neutralizing nanobody; source: E. coli SHuffle Express, cytoplasmic, purified (Ni2+ chelate column, eluted by cleaving the tag with Ulp1p)
As to B1, the binding result is on record as “no binding (tested: 200 nM)”.

Source of the values: article PMC12507662 (Nature, 2025).
